Test results reported in the RNAGym collection of RNA variant scans (doi:10.1073/pnas.2313332121).
This sample holds only a part of the variants without activity.

B1: TPR 5TU (parent)
chain: GGAUCUUCUCGAUCUAACAAAAAAGACAAAUCUGCCACAAAGCUUGAGAGCAUCUUCGGAUGCAGAGGCGGCAGCCUUCGGUGGCGCGAUAGCGCCAACGUUCUCAACUAUGACACGCAAAACGCGUGCUCCGUUGAAUGGAGUUUAUCAUG

Variants of: B1
Assay: polymerase ribozyme fitness, log enrichment relative to wild type (log ratio); higher = more active; in vitro selection for triplet polymerase activity
In short: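 The heterodimeric triplet polymerase ribozyme's subunits were each mutagenized into PCR-built libraries and transcribed. Every library was selected once, in triplicate, by annealing with a biotinylated primer, the partner subunit and triplets, incubating frozen at −7 °C, gel-excising extended constructs, capturing on streptavidin beads and running RT-PCR. Input and output libraries were Illumina-sequenced, with genotypes kept only at ≥10 input reads and ≥1 read per output. Fitness, from inverse-variance-weighted replicate averages, is the base-2 logarithm of genotype enrichment over wild-type enrichment.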

Row | Variant | polymerase ribozyme fitness (log ratio)
1 | A24G A52G U55A C85U A150C | ≤ -4.2
2 | A23U A24C G25U G94C A119C C123A G141C | ≤ -4.2
3 | A24C U55A A73U G84U U102A A110U A119C | ≤ -4.2
4 | A24U G80C G86U C125G A137C | ≤ -4.2
5 | A24U C85U | -0.914
6 | A24U C96G | -0.301
7 | A24U C96U | 0.0587
8 | A24U A26G A64C G84U A97U A122C | ≤ -4.2
9 | A23U G50A A60C A66U C85U C95G A122C | ≤ -4.2
10 | A24C A30U C43A C57U C87G | ≤ -4.2
11 | A23U C54U G74U U78G | ≤ -4.2
12 | A24U C35A C85U C132A | ≤ -4.2
13 | A24U G58A A66U C87A U90G U146C | ≤ -4.2
14 | A23U A30G A41C A47G U53G U56A C75A C93U C108G G133C G136A | ≤ -4.2
15 | A23U A52C U55A G81U G84A C99A U127C U145G | ≤ -4.2
16 | A23U C85G G141A | ≤ -4.2
17 | A24U A40C A49C C72G G83U C87G U139G U144C U151G | ≤ -4.2
18 | A23U A29C A119U | ≤ -4.2
19 | A24G G62U G94A C116G A120U U127A U135C | ≤ -4.2
20 | A24G C35U G48U A52U C125A | ≤ -4.2
21 | A24C A28U A41C U78G A122G U127A | ≤ -4.2

Row | Variant | polymerase ribozyme fitness (log ratio)
22 | A24U C27U C51A G92A A113U | ≤ -4.2
23 | A24U G42A C108U | 1.52
24 | A23U A26C A30U U56A A60C G86U G88C C95G G124U A137U U148C | ≤ -4.2
25 | A23U A24U | -4.12
26 | A24U U31C G59C A66G A91U C114U | ≤ -4.2
27 | A24G U31A U82C U101G | ≤ -4.2
28 | A24U G25A A39G A60U G83C | ≤ -4.2
29 | A24G C54U C95U A97C A119U C125U | ≤ -4.2
30 | A24U G68A | -3.78
31 | A23U A64C G68C | ≤ -4.2
32 | A23U C87A G133A | ≤ -4.2
33 | A24U A47C G71C A97U A98G C129G | ≤ -4.2
34 | A24U A49G A52C U53A U55A C69A | ≤ -4.2
35 | A24G G94C | -3.21
36 | A24G C123U C132U U134A | ≤ -4.2
37 | A23G G58U C108G U135G | ≤ -4.2
38 | A24C A29C A37U G59A U61G C87A C103G G117U | ≤ -4.2
39 | A24G C54A A106G | ≤ -4.2
40 | A23U C38A U45G G50C U56A C93G G117A | ≤ -4.2
41 | A24U U53A C57G A115U U151A | ≤ -4.2
42 | A24C U55A C57U G58U A66G G68C C85A C149G | ≤ -4.2

Row | Variant | polymerase ribozyme fitness (log ratio)
43 | A24U U53A G80A C85U A142C | ≤ -4.2
44 | A24U A66G | -3.16
45 | A24C A73G G83C G143U | ≤ -4.2
46 | A24G A29G G46U | ≤ -4.2
47 | A24U G25C A28G A30G A49U G83A C87A | ≤ -4.2
48 | A24C G34A C87A G126U | -4.18
49 | A24U C149G | -3.88
50 | A24C U31A A52G | -3.62
51 | A24C G34C G50C U134A | ≤ -4.2
52 | A23U A26C G50A | ≤ -4.2
53 | A23U A150G | ≤ -4.2
54 | A24C G42C G92U C125G | ≤ -4.2
55 | A23U A26U A41U G50A G65C A91C C103G G128U | ≤ -4.2
56 | A24U A39C G92U U144G U148G | ≤ -4.2
57 | A24U C96A U145A | 0.748
58 | A23U | -3.23
59 | A24C C54A A60G A73U U77G | ≤ -4.2
60 | A24U C35A C87A A91C A150G | ≤ -4.2
61 | A23U C43G G48A G92A A98G A147U G152C | -3.84
62 | A24G G80C G83C A115U U134A | ≤ -4.2
63 | A24C G88U C95G C96U | ≤ -4.2

Row | Variant | polymerase ribozyme fitness (log ratio)
64 | A24C G42U U44G U61A G80C A110U | ≤ -4.2
65 | A24U A29C A73G G86U A89C G140U A150G | ≤ -4.2
66 | A23U C38U G59C C95A U151G | ≤ -4.2
67 | A23G U55A C87U | -2.98
68 | A24G A97U G140U | ≤ -4.2
69 | A23U C35A A41C U55G G86C C95G C105A | ≤ -4.2
70 | A24G A30U G42U C72U A91G A120C | ≤ -4.2
71 | A24U G62U C96A G117A | -1.86
72 | A24G A39G G67U G83A C85A U104G C105U G136A | ≤ -4.2
73 | A24C U53A U55A A98U G126A C149G | ≤ -4.2
74 | A24G G25U U31C U55A C87G U102G | ≤ -4.2
75 | A23G G62A A73U C76G G88A C105U A106G | ≤ -4.2
76 | A24G G25C A49U G84A U102G | ≤ -4.2
77 | A24U G42C G84A C93U G94C C99A A122G | ≤ -4.2
78 | A24U A28U U33A A41C U55G C96U | ≤ -4.2
79 | A24G A26U U56A C87G C123A C132G G133U | ≤ -4.2
80 | A24G G59C | -3.7
81 | A24G C87A | ≤ -4.2
82 | A24U G67C C76G G83U | -2.24
83 | A24G C99U | -3.56
